Key:
[1] = target: c-CDCP1; test: BLI (Octet RED384)
[2] = target: T1, cleaved human CDCP1 on the cell surface (endogenous, PDAC cells) (human) (UniProt Q9H5V8); test: dose-response flow cytometry on PL5 cells; PL5 cells
T1 sequence 1: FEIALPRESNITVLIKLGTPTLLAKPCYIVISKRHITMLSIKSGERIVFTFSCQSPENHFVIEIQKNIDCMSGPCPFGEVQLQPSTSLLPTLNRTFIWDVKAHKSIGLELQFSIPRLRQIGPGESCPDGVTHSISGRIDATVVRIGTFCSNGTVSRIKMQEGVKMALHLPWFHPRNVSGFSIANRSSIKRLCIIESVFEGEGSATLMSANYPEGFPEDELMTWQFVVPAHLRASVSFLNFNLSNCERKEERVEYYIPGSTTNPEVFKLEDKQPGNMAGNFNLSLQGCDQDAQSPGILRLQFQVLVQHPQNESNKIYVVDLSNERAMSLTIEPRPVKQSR
T1 sequence 2: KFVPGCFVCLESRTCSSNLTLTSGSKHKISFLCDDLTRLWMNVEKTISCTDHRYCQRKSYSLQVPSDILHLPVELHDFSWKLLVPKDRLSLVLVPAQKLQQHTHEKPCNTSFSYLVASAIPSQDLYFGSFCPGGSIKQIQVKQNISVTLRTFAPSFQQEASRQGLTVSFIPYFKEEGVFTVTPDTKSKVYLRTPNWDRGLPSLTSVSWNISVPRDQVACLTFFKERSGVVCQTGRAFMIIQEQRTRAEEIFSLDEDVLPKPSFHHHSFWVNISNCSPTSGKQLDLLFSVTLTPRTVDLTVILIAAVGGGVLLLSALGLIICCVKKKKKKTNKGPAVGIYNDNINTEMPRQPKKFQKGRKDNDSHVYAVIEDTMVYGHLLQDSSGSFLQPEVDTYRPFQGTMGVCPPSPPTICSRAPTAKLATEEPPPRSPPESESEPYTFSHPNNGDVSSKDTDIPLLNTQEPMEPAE

[3] = target: T2, c-CDCP1-Fc (Cut 1) (human, UniProt Q9H5V8 30-365; Q9H5V8 366-667); test: BLI (Octet), table of in vitro binding affinities
T2 construct: Co-transfection of NTF and CTF-Fc plasmids; not shown: Fc domain
T2 sequence 1: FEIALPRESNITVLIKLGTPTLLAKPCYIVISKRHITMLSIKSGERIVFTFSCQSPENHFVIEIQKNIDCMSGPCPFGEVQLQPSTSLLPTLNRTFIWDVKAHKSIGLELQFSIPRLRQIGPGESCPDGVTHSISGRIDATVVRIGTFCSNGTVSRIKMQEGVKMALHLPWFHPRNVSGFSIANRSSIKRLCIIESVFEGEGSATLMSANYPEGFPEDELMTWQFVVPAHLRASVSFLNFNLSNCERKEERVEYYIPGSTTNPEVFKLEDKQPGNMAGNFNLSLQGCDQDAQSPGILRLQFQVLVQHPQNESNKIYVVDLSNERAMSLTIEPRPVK
T2 sequence 2: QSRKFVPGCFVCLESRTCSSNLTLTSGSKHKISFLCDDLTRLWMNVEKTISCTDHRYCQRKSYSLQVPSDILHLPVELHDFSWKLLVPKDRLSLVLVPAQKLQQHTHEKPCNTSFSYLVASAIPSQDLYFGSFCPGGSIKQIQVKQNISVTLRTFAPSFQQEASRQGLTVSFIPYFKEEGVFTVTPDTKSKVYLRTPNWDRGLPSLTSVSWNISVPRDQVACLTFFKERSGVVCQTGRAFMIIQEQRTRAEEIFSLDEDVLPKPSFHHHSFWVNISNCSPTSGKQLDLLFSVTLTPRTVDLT
Description: BLI experiments were performed using an Octet RED384 instrument (ForteBio). Biotinylated proteins were immobilized on a streptavidin (SA) biosensor and His-tagged proteins were immobilized on a Ni-NTA biosensor. Different concentrations of analyte in PBS pH 7.4+0.05% Tween-20+0.2% BSA (PBSTB) were used as analyte. Affinities (KDS) were calculated from a global fit (1:1) of the data using the Octet RED384 software.

B1: CL03 IgG (antibody, V domains shown)
VH: EVQLVESGGGLVQPGGSLRLSCAASGFNFSSYSIHWVRQAPGKGLEWVASIYPYSGSTYYADSVKGRFTISADTSKNTAYLQMNSLRAEDTAVYYCARQSHSYYSHTWWVSYGMDYWGQGTLVTVSS
VL: DIQMTQSPSSLSASVGDRVTITCRASQSVSSAVAWYQQKPGKAPKLLIYSASSLYSGVPSRFSGSRSGTDFTLTISSLQPEDFATYYCQQSGQRPITFGQGTKVEIKR
notes: also called IgG CL03
For B1, which Kd [1] is on record?
Its Kd is 0.15 to 0.84 nM.

And the EC50 [2]?
Its EC50 is 14.1 nM.

And the Kd [3]?
Its Kd is 0.84 nM.

What about the koff [3] of the same binder?
The koff was 0.000535 s⁻¹.

And the kon [3]?
Its kon is 640000 M⁻¹ s⁻¹.

From patent publication US20240376224A1 (University of California, published 2024)
